For two substances, 100 nM IFN-gamma (pg/mL), SEB assay, EC50 and MFI results are on record in US20250163127A1.

Where two headings read alike, the source gives them in different places.

The target in assay [1] is CD2 (human) (UniProt P06729).
Target sequence in this assay (P06729 25-351): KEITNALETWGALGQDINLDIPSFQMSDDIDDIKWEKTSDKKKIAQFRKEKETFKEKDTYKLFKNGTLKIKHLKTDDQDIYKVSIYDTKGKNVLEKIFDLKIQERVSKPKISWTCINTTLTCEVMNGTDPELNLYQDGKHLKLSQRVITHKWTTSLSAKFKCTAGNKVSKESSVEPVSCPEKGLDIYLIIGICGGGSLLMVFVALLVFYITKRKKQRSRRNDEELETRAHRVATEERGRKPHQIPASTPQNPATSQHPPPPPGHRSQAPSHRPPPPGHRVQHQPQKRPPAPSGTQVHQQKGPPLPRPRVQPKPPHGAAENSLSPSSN
Assay [2] deals with CD2 (human) (UniProt P06729). The assay can be described thus: flow cytometry, CHO-CD2 cells.
Target sequence in this assay (P06729 25-351 limits assumed): as the sequence (P06729 25-351) above
In assay [3] the target is ICOS (Homo sapiens (Human)) (UniProt Q9Y6W8). The experiment in a line: flow cytometry, transfected cells. For orientation: A flow cytometer gives signals particle by particle.
For assay [4], the target named is CTLA-4 (Homo sapiens (Human)) (UniProt P16410). The assay can be described thus: flow cytometry, transfected cells.
Assay [5] has as its target ICOS (Homo sapiens (Human)) (UniProt Q9Y6W8). The experiment in a line: flow cytometry, transfected cells. This is another data set of the same source.
Assay [6] concerns the target CTLA-4 (Homo sapiens (Human)) (UniProt P16410). The assay can be described thus: flow cytometry, transfected cells. This is another data set of the same source.
The target in assay [7] is ICOS (Homo sapiens (Human)) (UniProt Q9Y6W8). The experiment in a line: flow cytometry, transfected cells. The source holds these as a separate data set.
Assay [8] has as its target CTLA-4 (Homo sapiens (Human)) (UniProt P16410). The assay can be described thus: flow cytometry, transfected cells. This is another data set of the same source.

Wildtype ICOSL ECD-Fc (Fc fusion), sequence (chain): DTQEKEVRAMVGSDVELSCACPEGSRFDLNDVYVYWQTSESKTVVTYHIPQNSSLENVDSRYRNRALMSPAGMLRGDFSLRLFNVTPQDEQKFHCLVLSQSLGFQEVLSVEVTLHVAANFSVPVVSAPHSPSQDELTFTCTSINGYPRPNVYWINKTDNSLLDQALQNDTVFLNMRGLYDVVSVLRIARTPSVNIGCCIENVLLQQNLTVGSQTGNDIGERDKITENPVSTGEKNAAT
ICOS (Homo sapiens (Human)), sequence (Q9Y6W8 21-199 limits assumed): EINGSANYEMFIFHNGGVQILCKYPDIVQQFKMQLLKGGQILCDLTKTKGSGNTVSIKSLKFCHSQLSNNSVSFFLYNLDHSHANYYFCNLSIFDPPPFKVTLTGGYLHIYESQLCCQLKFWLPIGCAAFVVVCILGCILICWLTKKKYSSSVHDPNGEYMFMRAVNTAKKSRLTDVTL
CTLA-4 (Homo sapiens (Human)), sequence (P16410 36-223): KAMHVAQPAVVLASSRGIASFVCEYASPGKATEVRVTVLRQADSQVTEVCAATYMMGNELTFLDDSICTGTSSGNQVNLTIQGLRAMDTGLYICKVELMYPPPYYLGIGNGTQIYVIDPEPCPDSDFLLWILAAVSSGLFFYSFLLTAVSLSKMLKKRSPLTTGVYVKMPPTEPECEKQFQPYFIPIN

Regarding CD58 (WT) 3650-Fc (Fc fusion), the 100 nM IFN-gamma (pg/mL), SEB assay with CD2 (human) [1] amounted to 9660 pg/mL. Further, the half-maximal effective concentration (EC50) – broadly, the concentration needed to bring the measured effect to its halfway point – in the assay with CD2 (human) [2] amounted to 0.2 nM.
In the case of Wildtype ICOSL ECD-Fc (Fc fusion), the MFI is 83800 MFI in assay [3]; 4770 MFI in assay [4]; 36600 MFI in assay [5]; 3800 MFI in assay [6]; 212000 MFI in assay [7]; 330000 MFI in assay [8].
